# Results reported in patent US20240026037A1 (Memorial Sloan Kettering, published 2024).
# B1: Humanized A33 antibody with variable heavy chain VH1 and variable light chain VK4 (antibody, IgG1, V domains shown)
# VH: EVQLVESGGGLVKPGGSLRLSCAASGFAFSTYDMSWVRQAPGKGLEWVSTISSGGSYTYYADSVKGRFTISRDNAKNSLYLQMNSLRAEDTAVYYCAPTTVVPFAYWGQGTLVTVSA
# VL: DIQMTQSPSSLSASVGDRVTITCKASQNVRTVVAWYQQKPGKAPKTLIYLASNRHTGVPSRFSGSGSGTEFTLTISNLQPEDFATYYCLQHWSYPLTFGSGTKLEVK
# notes: Mouse A33 was humanized as IgG1 and tested in IgG format; also called VH1/VK4; huA33 IgG1
# B2: TC159 (bispecific antibody)
# chain: EVQLVESGGGLVKPGGSLRLSCAASGFAFSTYDMSWVRQAPGKRLEWVATISSGGSYTYYLDSVKGRFTISRDNAKNSLYLQMNSLRAEDTAVYYCAPTTVVPFAYWGQGTLVTVSSGGGGSGGGGSGGGGSGGGGSGGGGSGGGGSDIQMTQSQSSLSTSVGDRVTITCKASQNVRTVVAWYQQKPGKSPKTLIYLASNRHTGVPSRFSGSGSGTEFTLTISNVQPEDFADYFCLQHWSYPLTFGSGTKLEIKRGGGGSGGGGSGGGGSGGGGSHVQLVESGGGLVQPGGSLRLSCAASGFSLTDYGVHWVRQAPGKGLEWLGVIWSGGGTAYNTALISRFTISRDNSKNTLYLQMNSLRAEDTAVYYCARRGSYPYNYFDAWGCGTLVTVSSGGGGSGGGGSGGGGSGGGGSGGGGSGGGGSQAVVTQEPSLTVSPGGTVTLTCGSSTGAVTASNYANWVQQKPGQCPRGLIGGHNNRPPGVPARFSGSLLGGKAALTLLGAQPEDEAEYYCALWYSDHWVIGGGTKLTVLGTPLGDTTHTSGKPLDGEYFTLQIRGRERFEMFRELNEALELKDAQAGKEPGGSGGAPHHHHHH
# notes: Previously described GPA33xDOTA SADA clone whose GPA33 scFv comes from another clone; Carries the p53 SADA (tetramerization) domain
# B3: BC016 (G3A H3L3) (bispecific antibody, human IgG1, kappa, N297A)
# heavy: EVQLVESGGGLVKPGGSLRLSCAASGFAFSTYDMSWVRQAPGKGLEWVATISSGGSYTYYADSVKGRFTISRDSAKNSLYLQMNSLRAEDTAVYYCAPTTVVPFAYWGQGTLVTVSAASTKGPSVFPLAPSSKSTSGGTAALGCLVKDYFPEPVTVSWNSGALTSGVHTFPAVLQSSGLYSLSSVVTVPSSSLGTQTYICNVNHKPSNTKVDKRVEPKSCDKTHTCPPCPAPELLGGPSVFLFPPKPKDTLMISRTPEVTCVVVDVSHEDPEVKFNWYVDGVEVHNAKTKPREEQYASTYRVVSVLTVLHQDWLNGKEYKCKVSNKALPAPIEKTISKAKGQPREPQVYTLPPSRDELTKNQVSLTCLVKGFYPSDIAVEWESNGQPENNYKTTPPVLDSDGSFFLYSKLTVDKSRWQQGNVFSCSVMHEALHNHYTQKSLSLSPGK
# light: DIQMTQSPSSLSTSVGDRVTITCKASQNVRTVVAWYQQKPGKAPKTLIYLASNRHSGVPSRFSGSGSGTEFTLTISNLQPEDFATYYCLQHWSYPLTFGSGTKLEVKRTVAAPSVFIFPPSDEQLKSGTASVVCLLNNFYPREAKVQWKVDNALQSGNSQESVTEQDSKDSTYSLSSTLTLSKADYEKHKVYACEVTHQGLSSPVTKSFNRGECTSGGGGSGGGGSGGGGSHVQLVESGGGLVQPGGSLRLSCAASGFSLTDYGVHWVRQAPGKGLEWLGVIWSGGGTAYNTALISRFTISRDNSKNTLYLQMNSLRAEDTAVYYCARRGSYPYNYFDAWGCGTLVTVSSGGGGSGGGGSGGGGSGGGGSGGGGSGGGGSQAVVTQEPSLTVSPGGTVTLTCGSSTGAVTASNYANWVQQKPGQCPRGLIGGHNNRPPGVPARFSGSLLGGKAALTLLGAQPEDEAEYYCALWYSDHWVIGGGTKLTVLG
# notes: GPA33xDOTA IgG-[L]-scFv; The anti-DOTA scFv is fused to the C-terminus of the light chain
# Assays:
# [1] = molecular target: T1, Human GPA33 on GPA33+ colorectal cancer cell lines (Colo 205, LS 174T, SW 1222) (human, UniProt Q99795 22-319); assay: cell binding to LS174T Luc cells; IgG format
# T1 construct: Endogenous GPA33 on human colorectal cancer cell lines; also called surface human GPA33; GPA33+ tumor cell lines
# T1 sequence: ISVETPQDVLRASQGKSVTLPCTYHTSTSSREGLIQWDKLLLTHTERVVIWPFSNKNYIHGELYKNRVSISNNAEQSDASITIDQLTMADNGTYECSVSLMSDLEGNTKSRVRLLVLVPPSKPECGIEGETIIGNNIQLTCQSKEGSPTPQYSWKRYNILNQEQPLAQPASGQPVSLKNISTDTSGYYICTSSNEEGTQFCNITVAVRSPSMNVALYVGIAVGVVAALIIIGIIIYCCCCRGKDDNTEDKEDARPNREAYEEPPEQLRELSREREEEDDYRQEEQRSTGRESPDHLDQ
# [2] = molecular target: T1, Human GPA33 on GPA33+ colorectal cancer …; assay: cell binding to SW1222 Luc cells; IgG format
# [3] = molecular target: T2, Human GPA33 (recombinant protein, Novoprotein) (human, UniProt Q99795 22-235); assay: SPR (Biacore), human GPA33 immobilized on CM5 chip, IgG format
# T2 construct: Bought recombinant protein immobilized on a CM5 chip; also called GPA33 antigen; tumor antigen GPA33
# T2 sequence: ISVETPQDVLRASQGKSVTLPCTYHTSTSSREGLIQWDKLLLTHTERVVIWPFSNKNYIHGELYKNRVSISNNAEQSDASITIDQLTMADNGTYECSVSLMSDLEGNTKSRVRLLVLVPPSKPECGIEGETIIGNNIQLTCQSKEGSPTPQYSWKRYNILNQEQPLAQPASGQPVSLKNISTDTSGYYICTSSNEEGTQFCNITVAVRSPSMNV
# Procedure: (§1) SPR analysis. Human GPA33 (Novoprotein, Summit, NJ) was immobilized on CM5 chips. Five concentrations of 2-fold serially diluted huA33 IgG1 or huA33-BsAbs (starting at 20 nM) were flowed over the chip using a Biacore™ T100 system (GE Healthcare, Chicago, IL). Binding kinetics of huA33 were measured at 25° C. and binding kinetics of huA33-BsAbs were measured at both 25° C. and 37° C. The sensorgrams were fitted with two state binding model for both to derive kinetic parameters.
# [4] = molecular target: T1, Human GPA33 on GPA33+ colorectal cancer …; assay: flow cytometry, SW 1222 cells
# [5] = molecular target: T2, Human GPA33 (recombinant protein, …); assay: SPR (Biacore), human GPA33 immobilized on CM5 chip, two-state fit
# In short: (§2)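 GPA33 immobilized on CM5 chip; five 2-fold dilutions of huA33 IgG1 or huA33 bispecifics from 20 nM injected. Kinetics measured at 25 °C for huA33, at both 25 °C and 37 °C for bispecifics; sensorgrams fitted to a two-state binding model.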
# [6] = molecular target: T2, Human GPA33 (recombinant protein, …); assay: SPR (Biacore), human GPA33 immobilized on CM5 chip, two-state fit, ka1
# In short: as §2
# [7] = molecular target: T2, Human GPA33 (recombinant protein, …); assay: SPR
# In short: (§3)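 Recombinant human GPA33 (Novoprotein) was immobilised on a CM5 sensor chip, and antibodies were injected at five concentrations in 2-fold serial dilutions from 20 nM. Affinity (KD) was determined by surface plasmon resonance on a Biacore system, with kinetic fitting of the sensorgrams giving rate constants and KD. Every KD is reported as a ratio to the KD of a reference molecule.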
# [8] = molecular target: T1, Human GPA33 on GPA33+ colorectal cancer …; assay: FACS binding to Colo205 cells (GPA33+); the text prints 2.46 nM for this pair
# [9] = molecular target: T1, Human GPA33 on GPA33+ colorectal cancer …; assay: FACS titration on Colo205 cells, geometric mean MFI (the text prints 2.46 nM and calls it IC50)
# [10] = molecular target: T2, Human GPA33 (recombinant protein, …); assay: SPR (Biacore), human GPA33 immobilized on CM5 chip, two-state fit, kd1
# In short: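 The off-rate (kd1) was determined by surface plasmon resonance against immobilised recombinant human GPA33, using a two-state binding model fit. Antibodies were tested on a CM5 chip in a Biacore T100 at five concentrations, from 20 nM in 2-fold serial dilutions. The parent IgG1 was measured at 25° C, and the bispecific formats at 25° C and 37° C.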
# [11] = molecular target: T1, Human GPA33 on GPA33+ colorectal cancer …; assay: FACS binding to LS174T cells (GPA33+)
# [12] = molecular target: T1, Human GPA33 on GPA33+ colorectal cancer …; assay: FACS binding to SW1222 cells (GPA33+)
# [13] = molecular target: T1, Human GPA33 on GPA33+ colorectal cancer …; assay: FACS binding to Colo205 cells (GPA33+)
# [14] = molecular target: T2, Human GPA33 (recombinant protein, …); assay: SPR (Biacore), human GPA33 immobilised on the chip; KD relative to that of TC170
# In short: as §3
# [15] = molecular target: T1, Human GPA33 on GPA33+ colorectal cancer …; assay: flow cytometry, LS 174T cells
# [16] = molecular target: T1, Human GPA33 on GPA33+ colorectal cancer …; assay: flow cytometry, Colo 205 cells; Colo 205 cells
# [17] = molecular target: T1, Human GPA33 on GPA33+ colorectal cancer …; assay: FACS titration on Colo205 cells, geometric mean MFI
# [18] = molecular target: T1, Human GPA33 on GPA33+ colorectal cancer …; assay: FACS titration on LS174T cells, geometric mean MFI [Cont.]
# [19] = molecular target: T2, Human GPA33 (recombinant protein, …); assay: SPR (Biacore) on immobilized GPA33, 25 C per legend paragraph 44; two-state fit
# Procedure: as §1
# [20] = molecular target: T2, Human GPA33 (recombinant protein, …); assay: SPR (Biacore), human GPA33 immobilised on the chip; KD relative to that of BC015
# In short: as §3
# [21] = molecular target: T2, Human GPA33 (recombinant protein, …); assay: SPR (Biacore) on immobilized GPA33, 25 C per legend paragraph 44; column ka1 of the two-state fit
# Procedure: as §1
# [22] = molecular target: T2, Human GPA33 (recombinant protein, …); assay: SPR (Biacore), human GPA33 immobilised on the chip; two-state fit (ka1, kd1, ka2, kd2); temperature not given on the sheet
# Procedure: as §1
# [23] = molecular target: T2, Human GPA33 (recombinant protein, …); assay: SPR (Biacore) on immobilized GPA33, 25 C per legend paragraph 44; column kd1 of the two-state fit
# Procedure: as §1
# [24] = molecular target: T1, Human GPA33 on GPA33+ colorectal cancer …; assay: FACS titration on SW1222 cells, geometric mean MFI [Cont.]
binder,measurement,setting,value
B1,EC50,[1],0.503 µg/mL
same,EC50,[2],0.466 µg/mL
same,Kd,[3],168 pM
B2,IC50,[4],400 pM
same,Kd,[5],21.6 pM
same,ka2,[5],0.00613 s⁻¹
same,kd2,[5],0.000315 s⁻¹
same,kon,[6],4.09e+06 M⁻¹ s⁻¹
same,fold higher affinity than TC160,[7],3 fold
same,EC50,[8],2470 pM
same,EC50,[9],2470 pM
same,koff,[10],0.00181 s⁻¹
same,"fold change of binding EC50 (relative to TC170, lower is better)",[11],3.94
same,"fold change of binding EC50 (relative to TC170, lower is better)",[12],0.24
same,"fold change of binding EC50 (relative to TC170, lower is better)",[13],3.34
same,"Fold change of KD (relative to TC170, lower is better)",[14],1.4
same,IC50,[15],1220 pM
same,EC50,[16],2460 pM
B3,EC50,[17],740 pM
same,EC50,[18],650 pM
same,Kd,[19],7.92 pM
same,"Fold change of KD (relative to BC015, lower is better)",[20],0.07
same,kon,[21],5.5e+06 M⁻¹ s⁻¹
same,Kd,[22],7.92 pM
same,koff,[23],0.000511 s⁻¹
same,EC50,[24],350 pM
